Among the data in PMC6987189, “Native aggregation is a common feature among triosephosphate isomerases of different species” (Scientific Reports, 2020) are Km, kcat and kcat/Km values, retold here.

By Km is commonly meant the concentration of substrate that gives half-maximal velocity. As a reminder, the kcat is the maximal rate divided by the concentration of active sites. As usually defined, the kcat/Km is the turnover number divided by the Michaelis constant.

The test system of this data set is O=C[C@H](O)COP(=O)(O)O. Description: purified protein. To be noted: GAP to DHAP direction, 25 °C, 100 mM TEA, 10 mM EDTA, 0.2 mM NADH, GAP 0.3 to 3 mM. The format is biochemical, Giardia duodenalis.

Take GlTIM (Giardia duodenalis; C202A): the Michaelis-Menten constant (Km) was found to be 100 ± 10 µM, the catalytic constant (kcat) is 3280 ± 103 s⁻¹ and the kcat/Km came out at 2.9e+07 M⁻¹ s⁻¹.
